The record followed here is PMC8686763, “Pre-Steady-State Kinetics of the SARS-CoV-2 Main Protease as a Powerful Tool for Antiviral Drug Discovery” (Frontiers in Pharmacology, 2021).

In the assay the target is FRET substrate Dabcyl-[…]-E(Edans)-NH2 (SARS-CoV-2). Description: stopped-flow fluorescence kinetics (FRET signal of the Edans/Dabcyl peptide).

As for “SARS-CoV-2 main protease, catalytically inactive mutant C145A (enzyme)”, the Ka was found to be 1.6e+06 M⁻¹, the Kd came out at 600 nM, the koff was found to be 0.18 s⁻¹ and the kon was 280000 M⁻¹ s⁻¹.

For orientation: Kd means a measure of binding affinity in units of concentration. Lower therefore signals a tighter complex. The koff is a measure of how fast the partners let go of each other. What is called kon is a measure of how fast the partners come together. Read a low kon as slower complex formation.
